Data taken from US20230212319A1, “NOVEL ANTIGEN BINDING DOMAINS AND SYNTHETIC ANTIGEN RECEPTORS INCORPORATING THE SAME” (University of Southern California, priority 2020, published 2023).

Experiments:
Format in all cases: cell-based
RAJI cells = assay: JNG assay, co-culture with RAJI cells; settings: JNG cells expressing construct, co-culture with Raji
Method in brief: (§1)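 Read-out is NFAT-driven GFP measured by flow cytometry after ~4–18 h co-culture of SAR-expressing JNG cells with target cells (E:T about 1:2). SARs were introduced by lentiviral spinfection and selected with puromycin or blasticidin when possible; scores (+/- to 5+ ≈ 5–50% GFP+) are relative to parental JNG cells.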

RS;411 = assay: JNG assay, co-culture with RS;411 cells; settings: co-culture with RS411
Method in brief: as §1

RAJI-CD19-KO cells = assay: JNG assay, co-culture with RAJI-CD19-KO cells; settings: co-culture with Raji-CD19-KO
Method in brief: as §1

| Molecule | NFAT-GFP ASSAY: Raji (RAJI cells) | NFAT-GFP ASSAY: RS411 (RS;411) | NFAT-GFP ASSAY: Raji-CD19-KO (RAJI-CD19-KO cells) |
| --- | --- | --- | --- |
| 22110 (protein) MALPVTALLLPLALLLHAARPQLQLQESGPGLVKPSETLSLTCTVSGDSISSGDYYWGWIRQPPGKGLEWIGHIYYSGVTYYNPSLKSRVTISVDTSRNQFSLKLSSVTAADTAVYYCTREDSSNWRSRGQGTLVTVSSGTGGGGSGGGGSGGGGSEFDIQMTQSPSSLSASVGDRVTITCKASDHINNWLAWYQQKPGQAPKLLIYGATTLETGVPSRFSGSGSGTDYTLTISSLQPEDFATYYCQQSWNTPWTFGQGTKLEIKRLEDLKNVFPPEVAVFEPSEAEISHTQKATLVCLATGFYPDHVELSWWVNGKEVHSGVCTDPQPLKEQPALNDSRYCLSSRLRVSATFWQNPRNHFRCQVQFYGLSENDEWTQDRAKPVTQIVSAEAWGRADCGFTSESYQQGVLSATILYEILLGKATLYAVLVSALVLMAMVKRKDSRGRAKRSGSGATNFSLLKQAGDVEENPGPTSMDWIWRILFLVGAATGAHSFEQVQLQQPGAELVKPGASVKMSCKASGYAFSSYWINWMKQKPGQGLEWIGQIYPGDGDTNYNGKFKGRATLTADTSSSTAYMQLSSLTSEDSAVYFCARSITTVVGCAMDYWGQGTSVTVSSTRIQNPDPAVYQLRDSKSSDKSVCLFTDFDSQTNVSQSKDSDVYITDKCVLDMRSMDFKSNSAVAWSNKSDFACANAFNNSIIPEDTFFPSPESSCDVKLVEKSFETDTNLNFQNLSVIGFRILLLKVAGFNLLMTLRLWSSRAKRSGSGVKQTLNFDLLKLAGDVESNPGPSRGHMTEYKPTVRLATRDDVPRAVRTLAAAFADYPATRHTVDPDRHIERVTELQELFLTRVGLDIGKVWVADDGAAVAVWTTPESVEAGAVFAEIGPRMAELSGSRLAAQQQMEGLLAPHRPKEPAWFLATVGVSPDHQGKGLGSAVVLPGVEAAERAGVPAFLETSAPRNLPFYERLGFTVTADVEVPEGPRTWCMTRKPGA | 5+ (refer to approximately 5%, 10%, 20%, 30%, 40% and 50% GFP positive cells) | 4+ (refer to approximately 5%, 10%, 20%, 30%, 40% and 50% GFP positive cells) | 4+ (refer to approximately 5%, 10%, 20%, 30%, 40% and 50% GFP positive cells) |
| 22119 (protein) MALPVTALLLPLALLLHAARPDIQMTQSPSSLSASVGDRVTITCKASDHINNWLAWYQQKPGQAPKLLIYGATTLETGVPSRFSGSGSGTDYTLTISSLQPEDFATYYCQQSWNTPWTFGQGTKLEIKRLEADVSPKPTIFLPSIAETKLQKAGTYLCLLEKFFPDVIKIHWQEKKSNTILGSQEGNTMKTNDTYMKFSWLTVPEKSLDKEHRCIVRHENNKNGVDQEIIFPPIKTDVITMDPKDNCSKDANDTLLLQLTNTSAYYMYLLLLLKSVVYFAIITCCLLRRTAFCCNGEKSRAKRSGSGATNFSLLKQAGDVEENPGPTSATMDWIWRILFLVGAATGAHSGPQVQLQESGGGLAQAGGSLRLSCAASGRTFSMGWFRQAPGKEREFVAAITYSGGSPYYASSVRGRFTISRDNAKNTVYLQMNSLKPEDTAVYYCAANPTYGSDWNAENWGQGTQVTVSSGSGGGGSGGGGSGGGGSFEQVQLQQPGAELVKPGASVKMSCKASGYAFSSYWINWMKQKPGQGLEWIGQIYPGDGDTNYNGKFKGRATLTADTSSSTAYMQLSSLTSEDSAVYFCARSITTVVGCAMDYWGQGTSVTVSSTRPHTKPSVFVMKNGTNVACLVKEFYPKDIRINLVSSKKITEFDPAIVISPSGKYNAVKLGKYEDSNSVTCSVQHDNKTVHSTDFEVKTDSTDHVKPKETENTKQPSKSCHKPKAIVHTEKVNMMSLTVLGLRMLFAKTVAVNFLLTAKLFFLRAKRSGSGVKQTLNFDLLKLAGDVESNPGPSRGHMTEYKPTVRLATRDDVPRAVRTLAAAFADYPATRHTVDPDRHIERVTELQELFLTRVGLDIGKVWVADDGAAVAVWTTPESVEAGAVFAEIGPRMAELSGSRLAAQQQMEGLLAPHRPKEPAWFLATVGVSPDHQGKGLGSAVVLPGVEAAERAGVPAFLETSAPRNLPFYERLGFTVTADVEVPEGPRTWCMTRKPGA | 4+ (refer to approximately 5%, 10%, 20%, 30%, 40% and 50% GFP positive cells) | 3+ (refer to approximately 5%, 10%, 20%, 30%, 40% and 50% GFP positive cells) | 3+ (refer to approximately 5%, 10%, 20%, 30%, 40% and 50% GFP positive cells) |
| 22104 (protein) MALPVTALLLPLALLLHAARPDIQMTQSPSSLSASVGDRVTITCKASDHINNWLAWYQQKPGQAPKLLIYGATTLETGVPSRFSGSGSGTDYTLTISSLQPEDFATYYCQQSWNTPWTFGQGTKLEIKRLEDLKNVFPPEVAVFEPSEAEISHTQKATLVCLATGFYPDHVELSWWVNGKEVHSGVCTDPQPLKEQPALNDSRYCLSSRLRVSATFWQNPRNHFRCQVQFYGLSENDEWTQDRAKPVTQIVSAEAWGRADCGFTSESYQQGVLSATILYEILLGKATLYAVLVSALVLMAMVKRKDSRGRAKRSGSGATNFSLLKQAGDVEENPGPTSATMDWIWRILFLVGAATGAHSGPQVQLQESGGGLAQAGGSLRLSCAASGRTFSMGWFRQAPGKEREFVAAITYSGGSPYYASSVRGRFTISRDNAKNTVYLQMNSLKPEDTAVYYCAANPTYGSDWNAENWGQGTQVTVSSGSGGGGSGGGGSGGGGSFEQVQLQQPGAELVKPGASVKMSCKASGYAFSSYWINWMKQKPGQGLEWIGQIYPGDGDTNYNGKFKGRATLTADTSSSTAYMQLSSLTSEDSAVYFCARSITTVVGCAMDYWGQGTSVTVSSTRIQNPDPAVYQLRDSKSSDKSVCLFTDFDSQTNVSQSKDSDVYITDKCVLDMRSMDFKSNSAVAWSNKSDFACANAFNNSIIPEDTFFPSPESSCDVKLVEKSFETDTNLNFQNLSVIGFRILLLKVAGFNLLMTLRLWSSRAKRSGSGVKQTLNFDLLKLAGDVESNPGPSRGHMTEYKPTVRLATRDDVPRAVRTLAAAFADYPATRHTVDPDRHIERVTELQELFLTRVGLDIGKVWVADDGAAVAVWTTPESVEAGAVFAEIGPRMAELSGSRLAAQQQMEGLLAPHRPKEPAWFLATVGVSPDHQGKGLGSAVVLPGVEAAERAGVPAFLETSAPRNLPFYERLGFTVTADVEVPEGPRTWCMTRKPGA | 5+ (refer to approximately 5%, 10%, 20%, 30%, 40% and 50% GFP positive cells) | 5+ (refer to approximately 5%, 10%, 20%, 30%, 40% and 50% GFP positive cells) | 5+ (refer to approximately 5%, 10%, 20%, 30%, 40% and 50% GFP positive cells) |
| 22107 (protein) MALPVTALLLPLALLLHAARPDIQMTQSPSSLSASVGDRVTITCKASDHINNWLAWYQQKPGQAPKLLIYGATTLETGVPSRFSGSGSGTDYTLTISSLQPEDFATYYCQQSWNTPWTFGQGTKLEIKRLEIQNPDPAVYQLRDSKSSDKSVCLFTDFDSQTNVSQSKDSDVYITDKCVLDMRSMDFKSNSAVAWSNKSDFACANAFNNSIIPEDTFFPSSDVPCDVKLVEKSFETDTNLNFQNLSVIGFRILLLKVAGFNLLMTLRLWSSRAKRSGSGVKQTLNFDLLKLAGDVESNPGPTSATMDWIWRILFLVGAATGAHSGPQVQLQESGGGLAQAGGSLRLSCAASGRTFSMGWFRQAPGKEREFVAAITYSGGSPYYASSVRGRFTISRDNAKNTVYLQMNSLKPEDTAVYYCAANPTYGSDWNAENWGQGTQVTVSSGSGGGGSGGGGSGGGGSFEQVQLQQPGAELVKPGASVKMSCKASGYAFSSYWINWMKQKPGQGLEWIGQIYPGDGDTNYNGKFKGRATLTADTSSSTAYMQLSSLTSEDSAVYFCARSITTVVGCAMDYWGQGTSVTVSSTREDLKNVFPPEVAVFEPSKAEIAHTQKATLVCLATGFYPDHVELSWWVNGKEVHSGVCTDPQPLKEQPALNDSRYCLSSRLRVSATFWQNPRNHFRCQVQFYGLSENDEWTQDRAKPVTQIVSAEAWGRADCGITSASYHQGVLSATILYEILLGKATLYAVLVSALVLMAMVKRKDSRGRAKRSGSGATNFSLLKQAGDVEENPGPSRGHMTEYKPTVRLATRDDVPRAVRTLAAAFADYPATRHTVDPDRHIERVTELQELFLTRVGLDIGKVWVADDGAAVAVWTTPESVEAGAVFAEIGPRMAELSGSRLAAQQQMEGLLAPHRPKEPAWFLATVGVSPDHQGKGLGSAVVLPGVEAAERAGVPAFLETSAPRNLPFYERLGFTVTADVEVPEGPRTWCMTRKPGA | 4+ (refer to approximately 5%, 10%, 20%, 30%, 40% and 50% GFP positive cells) | + (refer to approximately 5%, 10%, 20%, 30%, 40% and 50% GFP positive cells) | 5+ (refer to approximately 5%, 10%, 20%, 30%, 40% and 50% GFP positive cells) |
| 22125 (protein) MALPVTALLLPLALLLHAARPEVQLVESGGGLVQAGGSLRLSCAASGRTFSMGWFRQAPGKEREFVAAITYSGGSPYYADSVKGRFTISRDNAKNTVYLQMNSLKPEDTAVYYCAANPTYGSDWNAENWGQGTQVTVSSGTGGGGSGGGGSGGGGSEFDIQMTQSPSSLSASVGDRVTITCKASDHINNWLAWYQQKPGQAPKLLIYGATTLETGVPSRFSGSGSGTDYTLTISSLQPEDFATYYCQQSWNTPWTFGQGTKLEIKRLEDLKNVFPPEVAVFEPSKAEIAHTQKATLVCLATGFYPDHVELSWWVNGKEVHSGVCTDPQPLKEQPALNDSRYCLSSRLRVSATFWQNPRNHFRCQVQFYGLSENDEWTQDRAKPVTQIVSAEAWGRADCGITSASYHQGVLSATILYEILLGKATLYAVLVSALVLMAMVKRKDSRGRAKRSGSGATNFSLLKQAGDVEENPGPTSATMDWIWRILFLVGAATGAHSGPQVQLQESGGGLAQAGGSLRLSCAASGRTFSMGWFRQAPGKEREFVAAITYSGGSPYYASSVRGRFTISRDNAKNTVYLQMNSLKPEDTAVYYCAANPTYGSDWNAENWGQGTQVTVSSGSGGGGSGGGGSGGGGSFEQVQLQQPGAELVKPGASVKMSCKASGYAFSSYWINWMKQKPGQGLEWIGQIYPGDGDTNYNGKFKGRATLTADTSSSTAYMQLSSLTSEDSAVYFCARSITTVVGCAMDYWGQGTSVTVSSTRIQNPDPAVYQLRDSKSSDKSVCLFTDFDSQTNVSQSKDSDVYITDKCVLDMRSMDFKSNSAVAWSNKSDFACANAFNNSIIPEDTFFPSSDVPCDVKLVEKSFETDTNLNFQNLSVIGFRILLLKVAGFNLLMTLRLWSSRAKRSGSGVKQTLNFDLLKLAGDVESNPGPSRGHMTEYKPTVRLATRDDVPRAVRTLAAAFADYPATRHTVDPDRHIERVTELQELFLTRVGLDIGKVWVADDGAAVAVWTTPESVEAGAVFAEIGPRMAELSGSRLAAQQQMEGLLAPHRPKEPAWFLATVGVSPDHQGKGLGSAVVLPGVEAAERAGVPAFLETSAPRNLPFYERLGFTVTADVEVPEGPRTWCMTRKPGA | 4+ (refer to approximately 5%, 10%, 20%, 30%, 40% and 50% GFP positive cells) | +/- (refer to approximately 5%, 10%, 20%, 30%, 40% and 50% GFP positive cells) | 5+ (refer to approximately 5%, 10%, 20%, 30%, 40% and 50% GFP positive cells) |
